Source: patent US5919901, “Neuropeptide Y receptor Y5 and nucleic acid sequences” (Bayer Corporation, dated 1999)
One block for each binder: values may come before it. Ends that are not written are not given here.

How the values were obtained:
[1] = target: T1, rat NPY Y5 receptor, clone Y217.24.13.6B (rat); assay: competition with [125I]PYY, membranes of transfected COS-7 cells
T1 chain: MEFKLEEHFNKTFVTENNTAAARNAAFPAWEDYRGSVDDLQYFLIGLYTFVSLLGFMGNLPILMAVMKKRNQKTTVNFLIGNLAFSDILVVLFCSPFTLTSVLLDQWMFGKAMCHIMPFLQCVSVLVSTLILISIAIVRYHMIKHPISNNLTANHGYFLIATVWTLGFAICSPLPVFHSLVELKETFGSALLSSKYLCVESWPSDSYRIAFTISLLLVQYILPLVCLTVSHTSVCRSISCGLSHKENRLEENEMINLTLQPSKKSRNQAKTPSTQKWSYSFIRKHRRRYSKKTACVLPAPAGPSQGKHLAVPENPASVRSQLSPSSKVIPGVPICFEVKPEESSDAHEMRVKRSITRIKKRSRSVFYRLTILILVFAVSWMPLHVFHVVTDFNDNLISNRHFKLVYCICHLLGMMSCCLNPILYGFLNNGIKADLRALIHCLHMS
Source text: (§1) All other peptides were purchased from either Peninsula (Belmont, Calif.) or Bachem (Torrance, Calif.).

[2] = target: T1, rat NPY Y5 receptor, clone Y217.24.13.6B; assay: competition with [125I]PYY, membranes of transfected COS-7 cells; second individual value in brackets
Source text: as §1

[3] = target: T1, rat NPY Y5 receptor, clone Y217.24.13.6B; assay: competition with [125I]PYY, membranes of transfected COS-7 cells; first individual value in brackets
Source text: as §1

[4] = target: T2, rat NPY Y5 receptor, clone Y861 (rat); assay: competition with [125I]PYY, membranes of transfected COS-7 cells
T2 chain: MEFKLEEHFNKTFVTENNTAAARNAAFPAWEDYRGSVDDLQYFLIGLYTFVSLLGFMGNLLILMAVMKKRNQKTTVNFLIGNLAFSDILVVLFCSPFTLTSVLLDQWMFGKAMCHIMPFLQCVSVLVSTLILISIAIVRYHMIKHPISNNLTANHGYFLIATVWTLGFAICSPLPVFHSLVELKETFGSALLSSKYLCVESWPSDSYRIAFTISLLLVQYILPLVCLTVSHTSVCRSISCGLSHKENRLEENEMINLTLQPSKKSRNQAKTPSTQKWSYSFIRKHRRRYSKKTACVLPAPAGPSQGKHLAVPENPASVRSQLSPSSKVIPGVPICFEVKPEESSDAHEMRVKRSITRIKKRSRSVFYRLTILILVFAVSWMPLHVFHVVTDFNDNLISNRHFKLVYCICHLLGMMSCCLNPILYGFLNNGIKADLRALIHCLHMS
Source text: as §1

[5] = target: T3, rat NPY Y5 receptor, clone Y555 (rat); assay: competition with [125I]PYY, membranes of transfected COS-7 cells; average of two experiments
T3 chain: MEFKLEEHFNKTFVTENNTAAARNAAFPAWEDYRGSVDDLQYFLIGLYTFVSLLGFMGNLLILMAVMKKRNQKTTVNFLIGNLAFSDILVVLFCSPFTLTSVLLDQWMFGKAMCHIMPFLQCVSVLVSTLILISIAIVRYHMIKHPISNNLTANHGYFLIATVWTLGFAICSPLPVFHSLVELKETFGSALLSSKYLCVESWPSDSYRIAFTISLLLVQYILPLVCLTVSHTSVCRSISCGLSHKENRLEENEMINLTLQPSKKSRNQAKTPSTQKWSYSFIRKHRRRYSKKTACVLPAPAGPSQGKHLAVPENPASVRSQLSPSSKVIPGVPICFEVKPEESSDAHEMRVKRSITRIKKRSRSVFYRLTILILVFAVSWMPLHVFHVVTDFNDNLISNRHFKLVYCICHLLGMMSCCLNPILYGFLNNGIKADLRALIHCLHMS
Source text: as §1

[6] = target: T3, rat NPY Y5 receptor, clone Y555; assay: competition with [125I]PYY, membranes of transfected COS-7 cells; second individual value in brackets
Source text: as §1

[7] = target: T3, rat NPY Y5 receptor, clone Y555; assay: competition with [125I]PYY, membranes of transfected COS-7 cells; first individual value in brackets
Source text: as §1

IC50 [1]: > 1 µM
Binder: HYINLITRQRY (ends and bridges not checked) [r/h(26-36)NPY]

IC50 [2]: 0.107 µM
IC50 [3]: 0.147 µM
Binder: ARYYSALRHYINLITRQRY (ends and bridges not checked) [p(18-36)NPY]

IC50 [4]: 0.073 µM
IC50 [1]: 0.0132 µM
IC50 [5]: 0.032 µM
IC50 [6]: 0.054 µM
IC50 [7]: 0.0096 µM
Binder: SPEELSRYYASLRHYLNLVTRQRY [r(13-36)PYY]

IC50 [4]: 0.0049 µM
Binder: APLEPVYPGDNATPEQMAQYAADLRRYINMLTRPRY [hPP]

IC50 [2]: 0.332 µM
IC50 [3]: 0.387 µM
Binder: YYSALRHYINLITRQRY (ends and bridges not checked) [r/h(20-36)NPY]

IC50 [1]: > 1 µM
Binder: SALRHYINLITRQRY (ends and bridges not checked) [r/h(22-36)NPY]

IC50 [4]: 0.325 µM
Binder: APLEPMYPGDYATHEQRAQYETQLRRYINTLTRPRY [rPP]
